Patent publication US20060264603A1 (DYAX, published 2006)
Numbering of substitutions follows the chain as printed. Ends that are not written are not given here.

B1: KKII/3#6 (designed binder)
chain: MHSFCAFKADDGHCKANHQRFFFNIFTRQCEEFSYGGCGGNQNRFESLEECKKMCTRD
notes: LACI-K1 Kunitz domain variant
B2: KKI/3 (a) (designed binder)
chain: B1 chain with H13R, A16G, N17A, Q19L, S34I, G39E
modifications: not fully specified; cysteine pairing not given here
notes: LACI-K1 variant from the first phase of screening; also called KKII/3 (a); clone a
B3: KKII/3#5 (designed binder)
chain: B1 chain with N17S, H18L, Q19P, S34I
notes: LACI-K1 Kunitz domain variant
B4: LACI-K1 (first Kunitz domain of LACI, residues 50-107 of SEQ ID NO:25) (other)
chain: B1 chain with H13P, N17I, H18M, Q19K, S34I, G39E
notes: also called parental molecule
B5: KKI/3 (b) (designed binder)
chain: B1 chain with H13P, N17I, Q19L, S34I, G39E
modifications: not fully specified; cysteine pairing not given here
notes: LACI-K1 variant from the first phase of screening; also called KKII/3 (b); clone b

What was measured:
[1] = target: T1, human plasma Kallikrein (Calbiochem, San Diego, Calif., # 420302) (human, UniProt P03952 20-638); test: preliminary inhibition measurements; method not described
T1 construct: mature; Bought enzyme coupled to agarose beads with Reactigel (6x); also called pKA; human Kallikrein
T1 sequence (P03952 20-638 limits assumed): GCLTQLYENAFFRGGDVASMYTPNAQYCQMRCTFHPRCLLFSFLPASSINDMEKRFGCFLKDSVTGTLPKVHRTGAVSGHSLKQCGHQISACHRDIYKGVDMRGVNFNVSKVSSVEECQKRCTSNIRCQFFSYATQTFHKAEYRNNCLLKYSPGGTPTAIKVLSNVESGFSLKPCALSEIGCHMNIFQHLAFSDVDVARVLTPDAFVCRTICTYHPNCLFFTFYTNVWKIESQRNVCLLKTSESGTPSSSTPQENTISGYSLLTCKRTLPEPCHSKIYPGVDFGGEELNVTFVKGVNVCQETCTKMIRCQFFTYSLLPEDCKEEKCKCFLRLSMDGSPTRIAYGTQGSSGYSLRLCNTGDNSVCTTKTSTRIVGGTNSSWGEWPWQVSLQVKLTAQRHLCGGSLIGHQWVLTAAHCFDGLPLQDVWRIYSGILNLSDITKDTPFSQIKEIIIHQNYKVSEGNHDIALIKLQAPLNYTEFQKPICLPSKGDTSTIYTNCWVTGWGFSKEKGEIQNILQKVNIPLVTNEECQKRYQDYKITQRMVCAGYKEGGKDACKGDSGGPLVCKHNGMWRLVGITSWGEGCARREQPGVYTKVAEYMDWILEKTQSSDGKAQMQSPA

[2] = target: T1, human plasma Kallikrein (Calbiochem, …); test: display-phage binding to kallikrein beads; fraction bound relative to parental
[3] = target: T1, human plasma Kallikrein (Calbiochem, …); test: inhibition; method not described
Plasmin [4] = target: T2, Plasmin; test: inhibition; method not described
T2 construct: Protease target in the specificity test
T2 sequence (P00747 97-580, chain 1 of 2): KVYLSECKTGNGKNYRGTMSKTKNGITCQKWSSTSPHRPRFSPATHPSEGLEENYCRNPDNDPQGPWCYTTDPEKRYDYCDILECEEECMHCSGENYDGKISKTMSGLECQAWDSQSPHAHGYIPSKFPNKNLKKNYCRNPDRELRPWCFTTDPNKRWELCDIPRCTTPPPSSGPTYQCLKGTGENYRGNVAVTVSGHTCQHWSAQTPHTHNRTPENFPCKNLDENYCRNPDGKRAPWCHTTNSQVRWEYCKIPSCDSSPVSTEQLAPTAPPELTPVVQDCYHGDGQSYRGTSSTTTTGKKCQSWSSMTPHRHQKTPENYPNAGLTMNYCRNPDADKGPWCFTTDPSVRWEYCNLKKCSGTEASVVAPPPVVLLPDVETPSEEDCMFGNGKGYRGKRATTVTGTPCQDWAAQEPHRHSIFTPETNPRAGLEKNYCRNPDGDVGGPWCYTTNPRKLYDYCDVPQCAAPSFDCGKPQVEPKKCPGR
T2 sequence (P00747 581-810, chain 2 of 2): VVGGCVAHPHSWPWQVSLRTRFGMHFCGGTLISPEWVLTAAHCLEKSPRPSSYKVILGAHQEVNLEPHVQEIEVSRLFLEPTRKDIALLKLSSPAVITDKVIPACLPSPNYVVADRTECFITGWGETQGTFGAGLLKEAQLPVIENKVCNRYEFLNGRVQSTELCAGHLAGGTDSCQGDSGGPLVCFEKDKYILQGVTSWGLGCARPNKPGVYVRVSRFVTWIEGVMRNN

[5] = target: T1, human plasma Kallikrein (Calbiochem, …); test: display-phage binding to kallikrein beads; pfu eluted / input (10^10 pfu)
Thrombin = target: T3, Thrombin; test: display-phage binding to protease target
T3 construct: Protease target in the specificity test

[6] = target: T1, human plasma Kallikrein (Calbiochem, …); test: display-phage binding to protease target
Trypsin [7] = target: T4, Trypsin; test: display-phage binding to protease target
T4 construct: Protease target in the specificity test

Plasmin [8] = target: T2, Plasmin; test: display-phage binding to protease target
Trypsin [9] = target: T4, Trypsin; test: display-phage binding to protease target; trypsin, two washes

| Binder | Ki [1] [µM] | Relative Binding [2] | Ki ratio against wild-type LACI and BPTI [3] [times] | Ki (Plasmin [4]) [µM] | Fraction Bound [5] | relative binding (compared to the parental phage display) (Thrombin) | relative binding (compared to the parental phage display) [6] | relative binding (compared to the parental phage display) (Trypsin [7]) | relative binding (compared to the parental phage display) (Plasmin [8]) | relative binding (compared to the parental phage display) (Trypsin [9]) |
| --- | --- | --- | --- | --- | --- | --- | --- | --- | --- | --- |
| B1 | < 0.0005 | 2070 fold relative to LACI(K1) display-phage | > 100 | 10 | 0.0087 fraction of input pfu |  |  |  |  |  |
| B2 |  | 761 fold relative to LACI(K1) display-phage |  |  | 3.2e-05 fraction of input pfu |  |  |  |  |  |
| B3 |  | 928 fold relative to LACI(K1) display-phage |  |  | 0.0039 fraction of input pfu |  |  |  |  |  |
| B4 |  | 1 fold relative to LACI(K1) display-phage |  |  | 4.2e-06 fraction of input pfu | 1 fold relative to parental phage display | 1 fold relative to parental phage display | 1 fold relative to parental phage display | 1 fold relative to parental phage display | 1 fold relative to parental phage display |
| B5 |  | 524 fold relative to LACI(K1) display-phage |  |  | 0.0022 fraction of input pfu |  |  |  |  |  |
